The record followed here is the supplement of paper PMC5998384.

Data set [1] has as its system HeLa Kyoto. In words: solubility in G1/S (NP-40 vs SDS abundance) (log2 ratio); higher = more soluble. The following applies: cell cycle stage: G1/S.
Data set [2] concerns HeLa Kyoto. In words: melting temperature (median over replicates), in situ; higher = more thermally stable.
Data set [3] deals with HeLa Kyoto. The data set can be described thus: solubility change mitosis vs G1/S (difference of NP-40 vs SDS log2 ratios) (log2 ratio difference); higher = more soluble in mitosis.
Data set [4] has as its system HeLa Kyoto. The data set can be described thus: thermal stability score vs G1/S (z-score of summed log2 fold changes over temperatures); higher = more thermally stable than in G1/S.
Setting [5] is: cell cycle stage: early G1 (4.5 h after nocodazole release).
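Wherever melting temperature (median over replicates), in situ is given: HeLa Kyoto cells synchronized by double thymidine or nocodazole block, proteins quantified by TMT10plex mass spectrometry, three independent biological replicates.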
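Wherever solubility change mitosis vs G1/S (difference of NP-40 vs SDS log2 ratios) is given: synchronized HeLa Kyoto cells (double thymidine block for G1/S, nocodazole release for mitosis), protein amounts in NP-40 versus SDS lysates quantified by mass spectrometry, three biological replicates.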
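Wherever solubility in G1/S (NP-40 vs SDS abundance) is given: HeLa Kyoto cells arrested at G1/S by double thymidine block, proteins quantified by TMT10plex mass spectrometry in mild NP-40 versus SDS extracts, three biological replicates.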
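Wherever thermal stability score vs G1/S (z-score of summed log2 fold changes over temperatures) is given: synchronized HeLa Kyoto cells, proteins quantified by TMT10plex mass spectrometry, three biological replicates, mitosis taken 0.5 h after nocodazole release, G1/S directly after double thymidine block.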

Regarding “MCGIWALFGSDDCLSVQCLSAMKIAHRGPDAFRFENVNGYTNCCFGFHRLAVVDPLFGMQPIRVKKYPYLWLCYNGEIYNHKKMQQHFEFEYQTKVDGEIILHLYDKGGIEQTICMLDGVFAFVLLDTANKKVFLGRDTYGVRPLFKAMTEDGFLAVCSEAKGLVTLKHSATPFLKVEPFLPGHYEVLDLKPNGKVASVEMVKYHHCRDVPLHALYDNVEKLFPGFEIETVKNNLRILFNNAVKKRLMTDRRIGCLLSGGLDSSLVAATLLKQLKEAQVQYPLQTFAIGMEDSPDLLAARKVADHIGSEHYEVLFNSEEGIQALDEVIFSLETYDITTVRASVGMYLISKYIRKNTDSVVIFSGEGSDELTQGYIYFHKAPSPEKAEEESERLLRELYLFDVLRADRTTAAHGLELRVPFLDHRFSSYYLSLPPEMRIPKNGIEKHLLRETFEDSNLIPKEILWRPKEAFSDGITSVKNSWFKILQEYVEHQVDDAMMANAAQKFPFNTPKTKEGYYYRQVFERHYPGRADWLSHYWMPKWINATDPSARTLTHYKSAVKA [ASNS]”, the “solubility in G1/S (log2)” value with HeLa Kyoto [1] is -0.142. Further, the melting temperature in the data set on HeLa Kyoto [2] (cell cycle stage: G1/S) stood at 52.8 °C; with HeLa Kyoto [2] (cell cycle stage: mitosis), 53.1 °C. Further, the “solubility change mitosis (log2)” value in the data set with HeLa Kyoto [3] is -0.21. The thermal stability score in the data set on HeLa Kyoto [4] (setting [5]) is 2.34; with HeLa Kyoto [4] (cell cycle stage: mitosis), -0.215.
For the sequence “MDSKESLTPGREENPSSVLAQERGDVMDFYKTLRGGATVKVSASSPSLAVASQSDSKQRRLLVDFPKGSVSNAQQPDLSKAVSLSMGLYMGETETKVMGNDLGFPQQGQISLSSGETDLKLLEESIANLNRSTSVPENPKSSASTAVSAAPTEKEFPKTHSDVSSEQQHLKGQTGTNGGNVKLYTTDQSTFDILQDLEFSSGSPGKETNESPWRSDLLIDENCLLSPLAGEDDSFLLEGNSNEDCKPLILPDTKPKIKDNGDLVLSSPSNVTLPQVKTEKEDFIELCTPGVIKQEKLGTVYCQASFPGANIIGNKMSAISVHGVSTSGGQMYHYDMNTASLSQQQDQKPIFNVIPPIPVGSENWNRCQGSGDDNLTSLGTLNFPGRTVFSNGYSSPSMRPDVSSPPSSSSTATTGPPPKLCLVCSDEASGCHYGVLTCGSCKVFFKRAVEGQHNYLCAGRNDCIIDKIRRKNCPACRYRKCLQAGMNLEARKTKKKIKGIQQATTGVSQETSENPGNKTIVPATLPQLTPTLVSLLEVIEPEVLYAGYDSSVPDSTWRIMTTLNMLGGRQVIAAVKWAKAIPGFRNLHLDDQMTLLQYSWMFLMAFALGWRSYRQSSANLLCFAPDLIINEQRMTLPCMYDQCKHMLYVSSELHRLQVSYEEYLCMKTLLLLSSVPKDGLKSQELFDEIRMTYIKELGKAIVKREGNSSQNWQRFYQLTKLLDSMHEVVENLLNYCFQTFLDKTMSIEFPEMLAEIITNQIPKYSNGNIKKLLFHQK [NR3C1]”, the “solubility in G1/S (log2)” value in the data set with HeLa Kyoto [1] stood at 0.0188. Further, the melting temperature with HeLa Kyoto [2] (cell cycle stage: G1/S) worked out at 48.2 °C; in the data set on HeLa Kyoto [2] (cell cycle stage: mitosis), 49.3 °C. Also, the “solubility change mitosis (log2)” value in the data set on HeLa Kyoto [3] was -0.168. In addition, the thermal stability score in the data set on HeLa Kyoto [4] (setting [5]) is 0.508; in the data set with HeLa Kyoto [4] (cell cycle stage: mitosis), 1.98.
As for “MEAPAAGLFLLLLLGTWAPAPGSASSEAPPLINEDVKRTVDLSSHLAKVTAEVVLAHLGGGSTSRATSFLLALEPELEARLAHLGVQVKGEDEEENNLEVRETKIKGKSGRFFTVKLPVALDPGAKISVIVETVYTHVLHPYPTQITQSEKQFVVFEGNHYFYSPYPTKTQTMRVKLASRNVESYTKLGNPTRSEDLLDYGPFRDVPAYSQDTFKVHYENNSPFLTITSMTRVIEVSHWGNIAVEENVDLKHTGAVLKGPFSRYDYQRQPDSGISSIRSFKTILPAAAQDVYYRDEIGNVSTSHLLILDDSVEMEIRPRFPLFGGWKTHYIVGYNLPSYEYLYNLGDQYALKMRFVDHVFDEQVIDSLTVKIILPEGAKNIEIDSPYEISRAPDELHYTYLDTFGRPVIVAYKKNLVEQHIQDIVVHYTFNKVLMLQEPLLVVAAFYILFFTVIIYVRLDFSITKDPAAEARMKVACITEQVLTLVNKRIGLYRHFDETVNRYKQSRDISTLNSGKKSLETEHKALTSEIALLQSRLKTEGSDLCDRVSEMQKLDAQVKELVLKSAVEAERLVAGKLKKDTYIENEKLISGKRQELVTKIDHILDAL [RPN1]”, the “solubility in G1/S (log2)” value in the data set with HeLa Kyoto [1] worked out at 0.0559. In addition, the melting temperature with HeLa Kyoto [2] (cell cycle stage: G1/S) is 53.2 °C; in the data set on HeLa Kyoto [2] (cell cycle stage: mitosis) it was 53.6 °C. In addition, the “solubility change mitosis (log2)” value in the data set on HeLa Kyoto [3] is -0.0592. For the same sequence, the thermal stability score in the data set on HeLa Kyoto [4] (setting [5]) worked out at 1.85; in the data set on HeLa Kyoto [4] (cell cycle stage: mitosis), 2.85.
Regarding “MSPRRTLPRPLSLCLSLCLCLCLAAALGSAQSGSCRDKKNCKVVFSQQELRKRLTPLQYHVTQEKGTESAFEGEYTHHKDPGIYKCVVCGTPLFKSETKFDSGSGWPSFHDVINSEAITFTDDFSYGMHRVETSCSQCGAHLGHIFDDGPRPTGKRYCINSAALSFTPADSSGTAEGGSGVASPAQADKAEL [MSRB3]”, in the data set on HeLa Kyoto [1], the “solubility in G1/S (log2)” value amounted to 0.116. For the same sequence, the values for the melting temperature in the data set with HeLa Kyoto [2] (cell cycle stage: G1/S) and in the data set on HeLa Kyoto [2] (cell cycle stage: mitosis) were 55 °C and 53.6 °C, respectively. Also, the “solubility change mitosis (log2)” value in the data set on HeLa Kyoto [3] amounted to 0.0421. In addition, the thermal stability score in the data set with HeLa Kyoto [4] (setting [5]) was -0.168; with HeLa Kyoto [4] (cell cycle stage: mitosis), -0.886.
As to “MAAALRVAAVGARLSVLASGLRAAVRSLCSQATSVNERIENKRRTALLGGGQRRIDAQHKRGKLTARERISLLLDPGSFVESDMFVEHRCADFGMAADKNKFPGDSVVTGRGRINGRLVYVFSQDFTVFGGSLSGAHAQKICKIMDQAITVGAPVIGLNDSGGARIQEGVESLAGYADIFLRNVTASGVIPQISLIMGPCAGGAVYSPALTDFTFMVKDTSYLFITGPDVVKSVTNEDVTQEELGGAKTHTTMSGVAHRAFENDVDALCNLRDFFNYLPLSSQDPAPVRECHDPSDRLVPELDTIVPLESTKAYNMVDIIHSVVDEREFFEIMPNYAKNIIVGFARMNGRTVGIVGNQPKVASGCLDINSSVKGARFVRFCDAFNIPLITFVDVPGFLPGTAQEYGGIIRHGAKLLYAFAEATVPKVTVITRKAYGGAYDVMSSKHLCGDTNYAWPTAEIAVMGAKGAVEIIFKGHENVEAAQAEYIEKFANPFPAAVRGFVDDIIQPSSTRARICCDLDVLASKKVQRPWRKHANIPL [PCCB]”, the “solubility in G1/S (log2)” value in the data set on HeLa Kyoto [1] was -0.114. Also, the melting temperature in the data set on HeLa Kyoto [2] (cell cycle stage: G1/S) was determined as 54.3 °C; in the data set with HeLa Kyoto [2] (cell cycle stage: mitosis) it was 54.9 °C. Also, the “solubility change mitosis (log2)” value in the data set with HeLa Kyoto [3] is -0.114. Further, the thermal stability score in the data set on HeLa Kyoto [4] (setting [5]) is -1.53; with HeLa Kyoto [4] (cell cycle stage: mitosis), -1.91.
